Results from US20130058902A1, “DENDRITIC CELL SUBSETS FOR GENERATING INDUCED TOLEROGENIC DENDRITIC CELLS AND RELATED COMPOSITIONS AND METHODS” (Selecta Biosciences, Inc., priority 2011, published 2013).

System: DCs in the spleen
Test: Expansion of spleen DCs in donor mice inoculated with FLT-3 ligand expressing melanoma cells
Type: in vivo, C57BL/6 mice
Details: spleen of syngeneic donor mice inoculated 10 days earlier with FLT-3 ligand expressing melanoma cells
Description: For each treatment day syngeneic donor mice were inoculated 10 days earlier with Fms-like tyrosine kinase 3 (FLT-3) ligand expressing melanoma cells s.s. (performed on days−10, 4, 18 in donor C57BL/6 age-matched mice). Flt3 ligand is a growth factor for DCs and allows for greater total number of DCs to be present in the spleen. This increased the number of DCs more than 10-fold and allowed for more cells to be available for in vitro treatment and in vivo administration.

B1: Flt3 ligand: growth factor for DCs, delivered by FLT-3 ligand expressing melanoma cells inoculated into donor mice (protein, UniProt P49772 27-232, looked up)
Fms-related tyrosine kinase 3 …: GTPDCYFSHSPISSNFKVKFRELTDHLLKDYPVTVAVNLQDEKHCKALWSLFLAQRWIEQLKTVAGSKMQTLLEDVNTEIHFVTSCTFQPLPECLRFVQTNISHLLKDTCTQLLALKPCIGKACQNFSRCLEVQCQPDSSTLLPPRSPIALEATELPEPRPRQLLLLLLLLLPLTLVLLAAAWGLRWQRARRRGELHPGVPLPSHP
  increase of the number of DCs: more than 10 fold
